# In US20220363770A1 (Amgen, published 2022):
# Substitutions are numbered along the chain they refer to. Names and notes keep the numbering of the source.
# T1: human PAC1 receptor on SH-SY5Y (CRL-2266) cells (human, UniProt P41586 24-468)
# T1 sequence: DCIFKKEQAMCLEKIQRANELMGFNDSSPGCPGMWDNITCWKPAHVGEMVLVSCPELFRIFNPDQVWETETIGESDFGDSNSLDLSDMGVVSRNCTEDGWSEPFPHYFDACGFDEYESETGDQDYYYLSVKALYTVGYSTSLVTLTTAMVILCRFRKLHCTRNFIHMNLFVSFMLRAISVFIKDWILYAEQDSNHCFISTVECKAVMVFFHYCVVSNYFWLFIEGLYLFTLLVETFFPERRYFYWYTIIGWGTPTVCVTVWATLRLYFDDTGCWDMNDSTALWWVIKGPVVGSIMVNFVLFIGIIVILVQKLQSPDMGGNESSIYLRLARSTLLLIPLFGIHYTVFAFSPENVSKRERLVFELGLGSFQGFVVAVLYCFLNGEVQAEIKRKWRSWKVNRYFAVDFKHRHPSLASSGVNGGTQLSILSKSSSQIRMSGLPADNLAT
# B1: 4E4 single-point alanine variant antibody H_D54A (antibody, V domains shown)
# VH: QVQLVESGGGVVQPGRSLRLSCAASGFTFSSFGMHWVRQAPGKGLEWVAVISFAGSIKYSVDSVKGRFTISRDNSKNTLFLQMNSLRAEDTAVYYCARDRLNYYDSSGYYHYKYYGMAVWGQGTTVTVSS
# VL: QSVLTQPPSVSAAPGQKVTISCSGSSSNIGNNYVSWYQQLPGTAPKLLIYDNNKRPSGIPDRFSGSKSGTSTTLGITGLQTGDEADYYCGTWDSRLSAVVFGGGTKLTVLG
# notes: Recombinantly expressed as monoclonal antibody; also called CDRH2 D54A antibody variant
# B2: 4E4 single-point alanine variant antibody H_Y104A (antibody, V domains shown)
# VH: B1 VH with A54D, Y104A
# VL: B1 VL
# notes: Recombinantly expressed as monoclonal antibody
# B3: 4E4 heavy chain Y104A single-point alanine variant antibody (antibody, V domains shown)
# VH: B1 VH with A54D, Y104A
# VL: B1 VL
# notes: Recombinantly expressed as a monoclonal antibody
# B4: 4E4 single-point alanine variant antibody H_Y110A (antibody, V domains shown)
# VH: B1 VH with A54D, Y110A
# VL: B1 VL
# notes: as for B2
# B5: 4E4 single-point alanine variant antibody H_Y109A (antibody, V domains shown)
# VH: B1 VH with A54D, Y109A
# VL: B1 VL
# notes: as for B2
# B6: 4E4 heavy chain Y110A single-point alanine variant antibody (antibody, V domains shown)
# VH: B1 VH with A54D, Y110A
# VL: B1 VL
# notes: as for B3
# B7: 4E4 heavy chain Y103A single-point alanine variant antibody (antibody, V domains shown)
# VH: B1 VH with A54D, Y103A
# VL: B1 VL
# notes: as for B3
# B8: 4E4 single-point alanine variant antibody H_Y103A (antibody, V domains shown)
# VH: B1 VH with A54D, Y103A
# VL: B1 VL
# notes: as for B2
# B9: 4E4 heavy chain Y109A single-point alanine variant antibody (antibody, V domains shown)
# VH: B1 VH with A54D, Y109A
# VL: B1 VL
# notes: as for B3
# B10: iPS:571017 (5604) anti-CGRP receptor/anti-PAC1 receptor bispecific hetero-immunoglobulin (bispecific antibody, human IgG1, kappa, lambda, N297G)
# light 1: QSVLTQPPSVSAAPGQKVTISCSGSYSNIGRYSVSWYQQLPGTAPKLLIYDNNKRPSGIPDRFSGSKSGTSATLGITGLQTGDEADYYCGTWDSRLSAVVFGGGTKLTVLGQPKAAPSVTLFPPSSEELQANKATLVCLISDFYPGAVTVAWKADSSPVKAGVETTTPSKQSNNKYAAKSYLSLTPEQWKSHRSYSCQVTHEGSTVEKTVAPTECS
# heavy 1: QVQLVESGGGVVQPGRSLRLSCAASGFTFSSFGMHWVRQAPGKGLEWVAVISFDGSIKYSVDSVKGRFTISRDNSKNTLFLQMNSLRAEDTAVYYCARDRLNYYESSGYYHYKYYGMAVWGQGTTVTVSSASTKGPSVFPLAPSSKSTSGGTAALGCLVKDYFPEPVTVSWNSGALTSGVHTFPAVLQSSGLYSLESVVTVPSSSLGTQTYICNVNHKPSNTKVDKKVEPKSCDKTHTCPPCPAPELLGGPSVFLFPPKPKDTLYITREPEVTCVVVDVSHEDPEVKFNWYVDGVEVHNAKTKPCEEQYGSTYRCVSVLTVLHQDWLNGKEYKCKVSNKALPAPIEKTISKAKGQPREPQVYTLPPSRKEMTKNQVSLTCLVKGFYPSDIAVEWESNGQPENNYKTTPPVLKSDGSFFLYSKLTVDKSRWQQGNVFSCSVMHEALHNHYTQKSLSLSPGK
# light 2: EIVLTQSPATLSLSPGERATLSCRASKSVGRSLHWYQQKPGQAPRLLIKYASQSLSGIPARFSGSGSGTDFTLTISSLEPEDFAVYYCHQSSRLPFTFGPGTKVDIKRTVAAPSVFIFPPSDEQLKSGTASVVCLLNNFYPREAKVQWKVDNALQSGNSQESVTEQDSKDSTYSLESTLTLSKADYEKHKVYACEVTHQGLSSPVTKSFNRGEC
# heavy 2: not shown
# B11: iPS:571023 (5607) anti-CGRP receptor/anti-PAC1 receptor bispecific hetero-immunoglobulin (bispecific antibody, human IgG1, kappa, lambda, N297G)
# light 1: B10 light 1
# heavy 1: B10 heavy 1 with Y265M, T267S, E269T
# light 2: B10 light 2
# heavy 2: not shown
# B12: iPS:571033 (5608) anti-CGRP receptor/anti-PAC1 receptor bispecific hetero-immunoglobulin (bispecific antibody, human IgG1, kappa, lambda, N297G)
# light 1: B10 light 1
# heavy 1: B10 heavy 1 with Y265M, T267S, E269T, K369E, E370K
# light 2: B10 light 2
# heavy 2: not shown
# B13: iPS:571824 (5609) anti-CGRP receptor/anti-PAC1 receptor bispecific hetero-immunoglobulin (bispecific antibody, human IgG1, kappa, lambda, N297G)
# light 1: B10 light 1
# heavy 1: B10 heavy 1 with K369E, E370K
# light 2: B10 light 2
# heavy 2: not shown
# B14: iPS:571025 (5605) anti-CGRP receptor/anti-PAC1 receptor bispecific hetero-immunoglobulin (bispecific antibody, human IgG1, kappa, lambda, N297G)
# light 1: B10 light 1
# heavy 1: B10 heavy 1
# light 2: B10 light 2
# heavy 2: not shown
# Legend:
# [1] = molecular target: T2, soluble CGRP receptor (ECDs of human CRLR and human RAMP1) (human, UniProt Q16602 23-133; O60894 26-117); assay: SPR (Biacore T200), antibody captured, soluble CGRP receptor as analyte
# T2 construct: complex treated with thrombin before crystallization; also called soluble human CGRP receptor; CRLR ECD/RAMP1 ECD heterodimer
# [2] = molecular target: T3, soluble CGRP receptor (extracellular domains of human CRLR and human RAMP1) (human, UniProt Q16602 23-133; O60894 26-117); assay: SPR (Biacore T200), antibody captured by goat anti-human Fc, soluble CGRP receptor as analyte
# T3 construct: the tag and the thrombin site are not described; also called soluble human CGRP receptor; CGRP receptor ECD
# [3] = molecular target: human CGRP receptor (human CRLR / human RAMP1 heterodimer) on SK-N-MC (HTB-10) cells (human, UniProt Q16602 23-461; O60894 27-148); assay: cell-based or functional assay
# [4] = molecular target: T1, human PAC1 receptor on SH-SY5Y …; assay: cell-based or functional assay
# T2 sequence (Q16602 23-133, chain 1 of 2): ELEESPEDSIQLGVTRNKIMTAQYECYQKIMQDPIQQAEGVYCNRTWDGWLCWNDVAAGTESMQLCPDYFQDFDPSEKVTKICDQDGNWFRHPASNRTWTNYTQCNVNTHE
# T2 sequence (O60894 26-117, chain 2 of 2): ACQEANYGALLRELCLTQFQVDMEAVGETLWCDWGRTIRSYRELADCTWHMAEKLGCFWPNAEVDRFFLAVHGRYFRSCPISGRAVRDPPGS
# T3 sequence (Q16602 23-133, chain 1 of 2): as the sequence (Q16602 23-133, chain 1 of 2) above
# T3 sequence (O60894 26-117, chain 2 of 2): as the sequence (O60894 26-117, chain 2 of 2) above
# human CGRP receptor (human CRLR / human RAMP1 heterodimer) on SK-N-MC (HTB-10) cells, sequence (Q16602 23-461 limits assumed, chain 1 of 2): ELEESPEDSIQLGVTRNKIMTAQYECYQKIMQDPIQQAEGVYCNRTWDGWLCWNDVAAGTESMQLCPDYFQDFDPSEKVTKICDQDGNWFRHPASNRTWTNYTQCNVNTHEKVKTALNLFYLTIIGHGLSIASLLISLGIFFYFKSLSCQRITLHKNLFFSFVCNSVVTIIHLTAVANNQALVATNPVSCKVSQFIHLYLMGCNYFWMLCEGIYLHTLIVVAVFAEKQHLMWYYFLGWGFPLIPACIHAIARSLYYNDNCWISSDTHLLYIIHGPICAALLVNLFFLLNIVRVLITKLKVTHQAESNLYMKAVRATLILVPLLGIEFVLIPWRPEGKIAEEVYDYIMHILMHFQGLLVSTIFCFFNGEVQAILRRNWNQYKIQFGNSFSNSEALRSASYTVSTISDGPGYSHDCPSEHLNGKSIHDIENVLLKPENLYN
# human CGRP receptor (human CRLR / human RAMP1 heterodimer) on SK-N-MC (HTB-10) cells, sequence (O60894 27-148 limits assumed, chain 2 of 2): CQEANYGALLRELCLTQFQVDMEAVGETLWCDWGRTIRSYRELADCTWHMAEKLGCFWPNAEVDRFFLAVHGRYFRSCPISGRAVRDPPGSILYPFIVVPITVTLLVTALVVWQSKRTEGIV
Binder,Fold-improvement over 4E4 Ab (human CGRP receptor IC50) [3],"Human CGRP Receptor IC50 (nM), cell-based cAMP assay [3]",Fold-improvement over 29G4v22 Ab (human PAC1 receptor IC50) [4],"Human PAC1 Receptor IC50 (nM), cell-based cAMP assay [4]",also measured
B1,–,–,–,–,fold faster dissociation rate against wild-type 4E4 [1]: ~5 fold
B2,–,–,–,–,binding result [1]: no binding (tested: 1000 nM (highest analyte concentration))
B3,–,–,–,–,binding result [2]: no binding (tested: soluble CGRP receptor up to 1000 nM)
B4,–,–,–,–,binding result [1]: no binding (tested: 1000 nM (highest analyte concentration))
B5,–,–,–,–,binding result [1]: no binding (tested: 1000 nM (highest analyte concentration))
B6,–,–,–,–,binding result [2]: no binding (tested: soluble CGRP receptor up to 1000 nM)
B7,–,–,–,–,binding result [2]: no binding (tested: soluble CGRP receptor up to 1000 nM)
B8,–,–,–,–,binding result [1]: no binding (tested: 1000 nM (highest analyte concentration))
B9,–,–,–,–,binding result [2]: no binding (tested: soluble CGRP receptor up to 1000 nM)
B10,1.3 fold,0.45 nM,4.8 fold,0.86 nM,–
B11,0.9 fold,0.63 nM,4.4 fold,0.88 nM,–
B12,1.7 fold,0.33 nM,7.2 fold,0.57 nM,–
B13,1.5 fold,0.38 nM,6.6 fold,0.62 nM,–
B14,0.9 fold,0.6 nM,3.1 fold,1.34 nM,–
